The conditions of data set [1]: cited from earlier work.
Data set [2] is described as follows: Kinetic characterization of purified mutant NcXRs, substrate L-arabinose (NADPH oxidation at A340). It counts as biochemical, Neurospora crassa. Here is the method: (§1) NADPH concentration was kept >100 μM at all times, making it the non-rate-limiting reagent assuming no significant change in KM for mutants from the 1.8 μM for wild-type NcXR toward NADPH. All reactions were performed at pH 6.3 and 25° C., allowing for easy comparison to published data on wild-type NcXR. Initial reaction rate at each substrate concentration was measured by monitoring the rate of change at A340 upon addition of purified enzyme to the substrate mix. All readings were taken in at least two independent two data sets to minimize random error and eliminate experimental artifacts. […] Maximum reaction rates (kcat) were calculated based on molecular weight of dimeric NcXR.
(§2) Michaelis-Meten kinetic constants (KM, kcat) were determined. All reactions were performed at 25° C. in 50 mM MOPS buffer pH 6.3. NADPH concentration was kept >100 μM, usually between 100-400 μM and substrate concentrations were between 5 and 1500 mM for xylose and between 5 and 2000 mM for arabinose. Purified enzymes were kept on ice at all times to minimize thermal inactivation. Calculations were based on at least two independent datasets of two readings each, and were performed by least-squares fit method in Microcal Origin 5.0 (OriginLab Corporation, Northampton, Mass.). Substrate solutions were maintained at 25° C. in ThermoNESLAB RTE7 refrigerated water bath (Thermo Electron Corporation, Waltham, Mass.). A water-circulating jacketed the cuvette holder in Varian Cary 100 Bio UV-visible spectrophotometer (Varian, Palo Alto, Calif.). 500 μL substrate solution was added to a quartz cuvette with 10 mm path-length and mixed with 0.3-2 μg purified enzyme. Reaction rate was monitored as decrease in absorbance at 340 nm, corresponding to oxidation of NADPH (c=6220 M^−1 cm^−1) to NADP. Initial reaction rate was measured as the slope between 0.05 min and 0.25 min. Specific activity calculated for various substrate concentrations from initial reaction rates was used to calculate Michaelis-Menten constants.

The nature of data set [3]: Kinetic characterization of purified mutant NcXRs, substrate D-xylose (NADPH oxidation at A340). It counts as biochemical, Neurospora crassa. Here is the method: as §1, §2
For data set [4] the following is noted: XR of the named organism, cited from earlier work.
[5] abbreviates: XR of the named organism, read-out: KM, NADPH.

Read-outs that look alike come from different tables or passages of the source.

B1: wt: wild-type xylose reductase from Neurospora crassa, SEQ ID NO: 1 (NCU 08384.1) (protein, listed as Neurospora crassa)
chain: MVPAIKLNSGFDMPQVGFGLWKVDGSIASDVVYNAIKAGYRLFDGACDYGNEVECGQGVARAIKEGIVKREELFIVSKLWNTFHDGDRVEPIVRKQLADWGLEYFDLYLIHFPVALEYVDPSVRYPPGWHFDGKSEIRPSKATIQETWTAMESLVEKGLSKSIGVSNFQAQLLYDLLRYAKVRPATLQIEHHPYLVQQNLLNLAKAEGIAVTAYSSFGPASFREFNMEHAQKLQPLLEDPTIKAIGDKYNKDPAQVLLRWATQRGLAIIPKSSREATMKSNLNSLDFDLSEEDIKTISGFDRGIRFNQPTNYFSAENLWIFG
One may read the Km as the substrate concentration at which the rate is half of its maximum. A word on the kcat: it is the number of substrate molecules converted per active site and unit of time at saturation. Take B1: the Km was 1.8 µM in data set [1] (setting [5]); 1.8 µM in data set [1] (wild-type NcXR, published value, read-out: KM toward NADPH); 40000 µM in data set [2] (pH 6.3, 25° C., NADPH >100 μM); 34000 µM in data set [4] (read-out: KM, xylose). In addition, the kcat in data set [2] (pH 6.3, 25° C., based on dimeric NcXR) is 30 s⁻¹; in data set [4], 60 s⁻¹. For the same molecule, the “Catalytic Efficiency (relative)” value in data set [2] (relative to wt with D-xylose) is 41%; in data set [3] (substrate D-Xylose, relative to wt with D-xylose) it was 100%. Further, the “xylose over arabinose specificity, in words” value in data set [3] was “higher than twofold”. Moreover, in data set [3] (ratio of catalytic efficiency between xylose and arabinose), the “Selectivity (xylose-to-arabinose)” value worked out at 2.4.

B2: P. siptitus: xylose reductase (XR) from P. siptitus as printed (protein, UniProt P31867 1-318, looked up)
NAD(P)H-dependent D-xylose …: MPSIKLNSGYDMPAVGFGCWKVDVDTCSEQIYRAIKTGYRLFDGAEDYANEKLVGAGVKKAIDEGIVKREDLFLTSKLWNNYHHPDNVEKALNRTLSDLQVDYVDLFLIHFPVTFKFVPLEEKYPPGFYCGKGDNFDYEDVPILETWKALEKLVKAGKIRSIGVSNFPGALLLDLLRGATIKPSVLQVEHHPYLQQPRLIEFAQSRGIAVTAYSSFGPQSFVELNQGRALNTSPLFENETIKAIAAKHGKSPAQVLLRWSSQRGIAIIPKSNTVPRLLENKDVNSFDLDEQDFADIAKLDINLRFNDPWDWDKIPIFV
Consider B2, for which the Km in data set [1] (setting [5]) is 9 µM.

B3: S. cerevisiae: xylose reductase (XR) from S. cerevisiae (protein, UniProt P38715 2-327, looked up)
NADPH-dependent aldose …: SSLVTLNNGLKMPLVGLGCWKIDKKVCANQIYEAIKLGYRLFDGACDYGNEKEVGEGIRKAISEGLVSRKDIFVVSKLWNNFHHPDHVKLALKKTLSDMGLDYLDLYYIHFPIAFKYVPFEEKYPPGFYTGADDEKKGHITEAHVPIIDTYRALEECVDEGLIKSIGVSNFQGSLIQDLLRGCRIKPVALQIEHHPYLTQEHLVEFCKLHDIQVVAYSSFGPQSFIEMDLQLAKTTPTLFENDVIKKVSQNHPGSTTSQVLLRWATQRGIAVIPKSSKKERLLGNLEIEKKFTLTEQELKDISALNANIRFNDPWTWLDGKFPTFA
Turning to B3, the Km in data set [1] (setting [5]) was 7.6 µM.

B4: C. tenuis: xylose reductase (XR) from C. tenuis (protein, UniProt O74237 1-322, looked up)
NAD(P)H-dependent D-xylose …: MSASIPDIKLSSGHLMPSIGFGCWKLANATAGEQVYQAIKAGYRLFDGAEDYGNEKEVGDGVKRAIDEGLVKREEIFLTSKLWNNYHDPKNVETALNKTLADLKVDYVDLFLIHFPIAFKFVPIEEKYPPGFYCGDGNNFVYEDVPILETWKALEKLVAAGKIKSIGVSNFPGALLLDLLRGATIKPAVLQVEHHPYLQQPKLIEFAQKAGVTITAYSSFGPQSFVEMNQGRALNTPTLFAHDTIKAIAAKYNKTPAEVLLRWAAQRGIAVIPKSNLPERLVQNRSFNTFDLTKEDFEEIAKLDIGLRFNDPWDWDNIPIFV
For the molecule B4, in data set [1] (setting [5]), the Km is 4.8 µM.

These data come from patent US8822661B2, “Xylose reductase mutants and uses thereof” (The Board of Trustees of the University of Illinois, priority 2007, dated 2014).
